# Where a chain is given by its changes, count along the chain named. In names and notes the source's numbering stands.
# T1: FcgRIIaH (human, UniProt P12318 34-217)
# T1 construct: extracellular domain; Allotype H131; also called FcγRIIa H; FcgRIIa type H; not shown: His tag attached to the C terminus
# T1 sequence (looked up): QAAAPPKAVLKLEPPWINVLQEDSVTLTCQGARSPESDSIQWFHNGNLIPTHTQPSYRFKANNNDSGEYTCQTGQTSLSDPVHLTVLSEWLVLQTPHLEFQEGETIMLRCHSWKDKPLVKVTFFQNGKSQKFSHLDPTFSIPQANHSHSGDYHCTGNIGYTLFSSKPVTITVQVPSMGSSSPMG
# T2: FcgRIIb (human, UniProt P31994 43-217)
# T2 construct: extracellular domain; also called FcγRIIb; CD32B; not shown: His tag attached to the C terminus
# T2 sequence (looked up): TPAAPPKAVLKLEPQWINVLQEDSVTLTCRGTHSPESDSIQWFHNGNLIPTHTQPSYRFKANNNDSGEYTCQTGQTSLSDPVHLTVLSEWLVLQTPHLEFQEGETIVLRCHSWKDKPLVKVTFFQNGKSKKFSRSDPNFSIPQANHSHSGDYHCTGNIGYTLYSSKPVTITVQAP
# T3: FcgRIIaR (human, UniProt P12318 34-217)
# T3 construct: extracellular domain; Allotype R131; also called FcγRIIa R; FcgRIIa type R; not shown: His tag attached to the C terminus
# T3 sequence (looked up): T1 sequence (looked up) with H134R
# B1: H240-Kn120/H240-Hl068/L73-k0 (antibody, human IgG1, kappa)
# heavy 1: QDQLVQSGAEVKKPGASVKVSCKASGFNIKDTYIQWVRQAPGQGLEWMGRIDPLRKQTKYREKFEGRVTITADTSTNTAYMELSSLRSEDTAVYYCVRSGREFDYWGQGTLVTVSSASTKGPSVFPLAPSSKSTSGGTAALGCLVKDYFPEPVTVSWNSGALTSGVHTFPAVLQSSGLYSLSSVVTVPSSSLGTQTYICNVNHKPSNTKVDKKVEPKSCDKTHTCPPCPAPEYYWGPMVFLFPPKPKDTLMISRTPEVTCVVVDVSDEDPEVKFNWYVDGVEVHNAKTKPREEQYNATYRVVSVLTVLHQDWLNGKEYKCKVSNKDLPAPIEKTISKAKGQPREPQVCTLPPSRDELTKNQVSLWCLVKGFYPSDIAVEWESNGQPENNYKTTPPVLDSDGSFFLYSKLTVDKSRWQQGNVFSCSVMHEALHNHYTQKSLSLSP
# heavy 2: QDQLVQSGAEVKKPGASVKVSCKASGFNIKDTYIQWVRQAPGQGLEWMGRIDPLRKQTKYREKFEGRVTITADTSTNTAYMELSSLRSEDTAVYYCVRSGREFDYWGQGTLVTVSSASTKGPSVFPLAPSSKSTSGGTAALGCLVKDYFPEPVTVSWNSGALTSGVHTFPAVLQSSGLYSLSSVVTVPSSSLGTQTYICNVNHKPSNTKVDKKVEPKSCDKTHTCPPCPAPELLGGPSVFLFPPKPKDTLMISRTPEVTCVVVDVSHEEPEVKFNWYVDGVEVHNAKTKPREEQYNSTYRVVSVLTVLHQDWLNGKEYKCKVSNDALPKPIEETISKAKGQPREPQVYTLPPSRCELTKNQVSLSCAVKGFYPSDIAVEWESNGQPENNYKTTPPVLDSDGSFFLVSKLTVDKSRWQQGNVFSCSVMHEALHNHYTQKSLSLSP
# light: DIQMTQSPSSLSASVGDRVTITCRASQDIHKYIAWYQQKPGQAPRLLIQYTSTLQPGVPSRFSGSGSGTDYTFTISSLQPEDIATYYCLQYEQLRTFGGGTKVEIKRTVAAPSVFIFPPSDEQLKSGTASVVCLLNNFYPREAKVQWKVDNALQSGNSQESVTEQDSKDSTYSLSSTLTLSKADYEKHKVYACEVTHQGLSSPVTKSFNRGEC
# notes: Heterodimerized (knobs-into-holes) anti-epiregulin IgG1 antibody
# B2: H240-Kn138/H240-Hl068/L73-k0 (antibody, human IgG1, kappa)
# heavy 1: B1 heavy 1 with L327W
# heavy 2: B1 heavy 2
# light: B1 light
# notes: Heterodimerized anti-epiregulin IgG1 antibody; L328W in H240-Kn120
# B3: H240-Kn120/H240-Hl170/L73-k0 (antibody, human IgG1, kappa)
# heavy 1: B1 heavy 1
# heavy 2: B1 heavy 2 with L327A
# light: B1 light
# notes: Heterodimerized anti-epiregulin IgG1 antibody; L328A in H240-Hl068
# B4: H240-Kn120/H240-Hl182/L73-k0 (antibody, human IgG1, kappa)
# heavy 1: B1 heavy 1
# heavy 2: B1 heavy 2 with A230H
# light: B1 light
# notes: Heterodimerized anti-epiregulin IgG1 antibody; A231H in H240-Hl068
# B5: H240-Kn120/H240-Hl174/L73-k0 (antibody, human IgG1, kappa)
# heavy 1: B1 heavy 1
# heavy 2: B1 heavy 2 with I331E
# light: B1 light
# notes: Heterodimerized anti-epiregulin IgG1 antibody; I332E in H240-Hl068
# B6: H240-Kn120/H240-Hl150/L73-k0 (antibody, human IgG1, kappa)
# heavy 1: B1 heavy 1
# heavy 2: B1 heavy 2 with I331T
# light: B1 light
# notes: Heterodimerized anti-epiregulin IgG1 antibody; I332T in H240-Hl068
# B7: GpH7-A48/GpH7-B3-15-02A/GpL16-k0 (antibody, human IgG1, kappa)
# heavy 1: QVQLVQSGAEVKKPGASVTVSCKASGYTFTDYEMHWIRQPPGEGLEWIGAIDPKTGDTAYSESFQDRVTLTADKSTSTAYMELSSLTSEDTAVYYCTRFYSYTYWGQGTLVTVSSASTKGPSVFPLAPSSKSTSGGTAALGCLVKDYFPEPVTVSWNSGALTSGVHTFPAVLQSSGLYSLSSVVTVPSSSLGTQTYICNVNHKPSNTKVDKKVEPKSCDKTHTCPPCPAPELLGGPSVFLFPPKPKDTLMISRTPEVTCVVVDVSHEDPEVKFNWYVDGVEVHNAKTKPREEQYNSTYRVVSVLTVLHQDWLNGKEYKCKVSNKALRAPIEKTISKAKGQPREPQVYTLPPSRKELTKNQVSLTCLVKGFYPSDIAVEWESNGQPENNYKTTPPVLDSDGSFFLYSKLTVDKSRWQQGNVFSCSVMHEALHNRYTQKSLSLSP
# heavy 2: not shown
# light: DIVMTQSPLSLPVTPGEPASISCQASESLVHSNRNTYLHWYLQKPGQSPQLLIYKVSNRFSGVPDRFSGSGSGTDFTLKISRVEAEDVGVYYCSQNTHVPPTFGQGTKVEIERTVAAPSVFIFPPSDEQLKSGTASVVCLLNNFYPREAKVQWKVDNALQSGNSQESVTEQDSKDSTYSLSSTLTLSKADYEKHKVYACEVTHQGLSSPVTKSFNRGEC
# notes: Anti-glypican-3 IgG1 heterodimer; P329R in H1, S298A in H2
# B8: GpH7-A48/GpH7-B3-20-08L/GpL16-k0 (antibody, human IgG1, kappa)
# heavy 1: B7 heavy 1
# heavy 2: not shown
# light: B7 light
# notes: Anti-glypican-3 IgG1 heterodimer; P329R in H1, A330L in H2
# B9: GpH7-A48/GpH7-B3-22-10E/GpL16-k0 (antibody, human IgG1, kappa)
# heavy 1: B7 heavy 1
# heavy 2: not shown
# light: B7 light
# notes: Anti-glypican-3 IgG1 heterodimer; P329R in H1, I332E in H2
# B10: GpH7-A53/GpH7-B78/GpL16-k0 (antibody, human IgG1, kappa)
# heavy 1: B7 heavy 1 with S237D, R327P
# heavy 2: B7 heavy 1 with S237D, R327P, A328L, I330E, K354D, R433H, K437E
# light: B7 light
# notes: S239D in one H chain, S239D/A330L/I332E in the other
# B11: GpH7-TA7/GpH7-B78/GpL16-k0 (antibody, human IgG1, kappa)
# heavy 1: B7 heavy 1 with L232Y, G234W, S296A, R327P
# heavy 2: B7 heavy 1 with S237D, R327P, A328L, I330E, K354D, R433H, K437E
# light: B7 light
# notes: L234Y/G236W/S298A in one H chain, S239D/A330L/I332E in the other
# Target: T4, FcgRIIIaV (human, UniProt P08637 17-208)
# T4 construct: extracellular domain; Allotype V158; also called FcγRIIIa V; not shown: His tag attached to the C terminus
# T4 sequence (P08637 17-208 F176V limits assumed): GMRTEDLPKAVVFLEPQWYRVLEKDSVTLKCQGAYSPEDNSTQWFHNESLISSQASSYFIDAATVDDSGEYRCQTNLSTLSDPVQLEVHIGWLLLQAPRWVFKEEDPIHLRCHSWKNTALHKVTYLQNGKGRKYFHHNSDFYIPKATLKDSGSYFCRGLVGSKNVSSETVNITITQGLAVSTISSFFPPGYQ
# Assay: SPR (Biacore); KD of H240-Kn120/H240-Hl068/L73-k0 divided by KD of the sample
# Experimental: (§1) Analysis of interaction between objective antibody and the FcγR was carried out using Biacore T100 (GE Healthcare), Biacore T200, Biacore A100, and Biacore 4000. HBS-EP+ (GE Healthcare) was used as the running buffer, and the measurement temperature was set to 25° C. Chips produced by immobilizing the antigen peptide by the amine coupling method to a Series S sensor Chip CM5 (GE Healthcare), chips produced by allowing preliminarily biotinylated antigen peptides to interact with and immobilize onto a Series S Sensor Chip SA (certified) (GE Healthcare), chips produced by immobilizing Protein L (ACTIGEN, BioVision) to Series S Sencor Chip CM5 (GE Healthcare), or chips produced by immobilizing Protein A/G (Thermo Scientific) to Series S Sencor Chip CM5 (GE Healthcare) were used. Antibodies of interest were captured onto these chips, and allowed to interact to each FcγR diluted with running buffer. To regenerate and repeatedly use the chip, the antibodies captured onto the chip were washed off by reacting 10 mM glycine-HCl, pH 1.5.
row,relative KD,Binder
1,1,B1
2,0.8,B2
3,0.4,B3
4,1.2,B4
5,10,B5
6,0.6,B6

# Target: T1, FcgRIIaH
# Assay: as above
# Experimental: as §1
row,relative KD,Binder
1,1,B1
2,1.6,B2
3,2.3,B3
4,0.5,B4
5,0.7,B5
6,1.2,B6

# Target: T5, FcgRIIIaF (human, UniProt P08637 17-208)
# T5 construct: extracellular domain; Allotype F158; also called FcγRIIIa F; not shown: His tag attached to the C terminus
# T5 sequence (P08637 17-208): as the sequence (P08637 17-208 F176V limits assumed) above, with V160F counted along it
# Assay: as above
# Experimental: as §1
row,relative KD,Binder
1,1,B1
2,0.6,B2
3,0.6,B3
4,0.7,B4
5,4.3,B5
6,0.7,B6

# Target: T6, FcgRIa (human, UniProt P12314 16-292)
# T6 construct: extracellular domain; Soluble extracellular domain expressed in FreeStyle293 cells; also called FcγRIa; FcγRI; not shown: His tag attached to the C terminus
# T6 sequence (P12314 16-292): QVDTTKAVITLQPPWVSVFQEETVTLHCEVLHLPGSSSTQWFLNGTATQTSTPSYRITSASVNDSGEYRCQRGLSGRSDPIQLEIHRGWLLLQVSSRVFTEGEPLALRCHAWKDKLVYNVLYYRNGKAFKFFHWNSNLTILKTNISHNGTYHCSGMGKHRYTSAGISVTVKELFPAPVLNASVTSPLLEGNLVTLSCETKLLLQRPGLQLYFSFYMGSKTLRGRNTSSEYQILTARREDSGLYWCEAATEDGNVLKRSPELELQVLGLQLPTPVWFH
# Assay: as above
# Experimental: as §1
row,relative KD,Binder
1,1,B1
2,1,B2
3,0.8,B3
4,0.9,B4
5,1.1,B5
6,0.4,B6

# Target: T2, FcgRIIb
# Assay: as above
# Experimental: as §1
row,relative KD,Binder
1,1,B1
2,1.2,B2
3,2.2,B3
4,0.6,B4
5,1.2,B5
6,1.5,B6

# Target: T3, FcgRIIaR
# Assay: as above
# Experimental: as §1
row,relative KD,Binder
1,1,B1
2,1.1,B2
3,2.3,B3
4,0.5,B4
5,0.7,B5
6,1,B6

# Target: T7, FcγRIIIa (human, UniProt P08637 17-208)
# T7 construct: extracellular domain; also called FcgRIIIa; CD16A; not shown: His tag attached to the C terminus
# T7 sequence (P08637 17-208): as the sequence (P08637 17-208 F176V limits assumed) above, with V160F counted along it
# Assay: SPR (Biacore), antibody captured on antigen-peptide chip, FcγR as analyte; relative binding amount
# Source text: The expression vectors for the respective H chains were combined in a way that each of the alterations L234Y, G236W, S298A, S239D, A330L, and I332E is present in the same H chain as P329R or in the different H chain from P329R, and the expression vector GpL16-k0 for the L chain was combined with them. Antibodies of interest were expressed and prepared according to the method described in Reference Example 1. The prepared antibodies were used to assay the FcγRIIIa-binding activity. The result of assessment using P329R on the direction of FcγRIIIa recognition by L234Y, G236W, S298A, S239D, A330L, and I332E is summarized in Table 12.
# Analysis of interaction between objective antibody and the FcγR was carried out using Biacore T100 (GE Healthcare). HBS-EP+ (GE Healthcare) was used as the running buffer, and the measurement temperature was set to 25° C. Chips produced by immobilizing the antigen peptide by the amine coupling method to a Series S Sencor Chip CM5 (GE Healthcare), or alternatively, chips produced by allowing preliminarily biotinylated antigen peptides to interact with and immobilize onto a Series S Sensor Chip SA (certified) (GE Healthcare) were used. Antibodies of interest were captured onto an antigen peptide-immobilized chip, and allowed to interact to each FcγR diluted with running buffer. To regenerate and repeatedly use the chip, the antibodies captured on the chip were washed off by reacting 10 mM glycine-HCl, pH 1.5.
row,FcγRIIIa BINDING ACTIVITY (relative),Binder
1,"47 relative, GpH7-A5/GpH7-B3/GpL16-k0 = 100",B7
2,"60 relative, GpH7-A5/GpH7-B3/GpL16-k0 = 100",B8
3,"189 relative, GpH7-A5/GpH7-B3/GpL16-k0 = 100",B9

# Target: FcγRIIIa F (human, UniProt P08637 17-208)
# Sequence (P08637 17-208): as the sequence (P08637 17-208 F176V limits assumed) above, with V160F counted along it
# Assay: SPR (Biacore), KD
fold decrease of FcγRIIIa-binding activity against GpH7-A57/GpH7-B78/GpL16-k0 [times],fold FcγRIIIa binding against GpH7-A5/GpH7-B78/GpL16-k0 [times],Binder
1.8,–,B10
–,≥ 10,B11

# Source: US20150344570A1 (published 2015)
